Source: PMC4735030

Biological target: porcine colonic mucins (porcine)
Experiment: SPR

recombinant BL0675 A type with a C-terminal 6 x His tag (natural protein)
Kd: 98.2 nM
koff: 0.00279 s⁻¹
kon: 28400 M⁻¹ s⁻¹
